Residue numbers refer to the chain shown, from its start. Names may count otherwise.
T1: Macaca fascicularis (crab-eating macaque) TFR1 expressed on CHO-S cells (Macaca fascicularis (crab-eating …))
T1 construct: CHO-S cells transfected with a vector expressing fasTFR1; also called fasTFR1; CHO-S-fasTFR1 cells
T1 chain: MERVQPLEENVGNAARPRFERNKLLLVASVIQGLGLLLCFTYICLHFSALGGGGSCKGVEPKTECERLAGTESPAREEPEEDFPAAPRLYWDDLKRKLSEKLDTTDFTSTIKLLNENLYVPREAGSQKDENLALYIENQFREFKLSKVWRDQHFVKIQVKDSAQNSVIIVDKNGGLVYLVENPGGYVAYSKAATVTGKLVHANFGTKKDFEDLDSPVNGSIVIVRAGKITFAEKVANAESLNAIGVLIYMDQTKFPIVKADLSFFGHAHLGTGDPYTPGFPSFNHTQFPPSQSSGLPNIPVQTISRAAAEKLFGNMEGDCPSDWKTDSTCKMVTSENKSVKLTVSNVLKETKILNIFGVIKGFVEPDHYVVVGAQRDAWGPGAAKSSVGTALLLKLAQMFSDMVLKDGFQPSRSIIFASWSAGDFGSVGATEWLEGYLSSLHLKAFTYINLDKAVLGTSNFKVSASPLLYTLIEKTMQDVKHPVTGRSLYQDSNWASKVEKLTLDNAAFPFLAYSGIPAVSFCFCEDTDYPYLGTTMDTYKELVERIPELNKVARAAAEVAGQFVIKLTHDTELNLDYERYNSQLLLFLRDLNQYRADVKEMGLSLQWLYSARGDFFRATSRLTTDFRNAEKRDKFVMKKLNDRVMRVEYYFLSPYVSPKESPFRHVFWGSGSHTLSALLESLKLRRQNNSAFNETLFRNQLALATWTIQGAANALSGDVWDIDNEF

T2: His-tagged monkey TFR1 protein (monkey (Macaca fascicularis))
T2 construct: Bought protein; The order of the tag and the receptor part is not known; also called fasTFR1-His; ACROBiosystems Cat #: TFR-C524a; not shown: His tag
T2 chain: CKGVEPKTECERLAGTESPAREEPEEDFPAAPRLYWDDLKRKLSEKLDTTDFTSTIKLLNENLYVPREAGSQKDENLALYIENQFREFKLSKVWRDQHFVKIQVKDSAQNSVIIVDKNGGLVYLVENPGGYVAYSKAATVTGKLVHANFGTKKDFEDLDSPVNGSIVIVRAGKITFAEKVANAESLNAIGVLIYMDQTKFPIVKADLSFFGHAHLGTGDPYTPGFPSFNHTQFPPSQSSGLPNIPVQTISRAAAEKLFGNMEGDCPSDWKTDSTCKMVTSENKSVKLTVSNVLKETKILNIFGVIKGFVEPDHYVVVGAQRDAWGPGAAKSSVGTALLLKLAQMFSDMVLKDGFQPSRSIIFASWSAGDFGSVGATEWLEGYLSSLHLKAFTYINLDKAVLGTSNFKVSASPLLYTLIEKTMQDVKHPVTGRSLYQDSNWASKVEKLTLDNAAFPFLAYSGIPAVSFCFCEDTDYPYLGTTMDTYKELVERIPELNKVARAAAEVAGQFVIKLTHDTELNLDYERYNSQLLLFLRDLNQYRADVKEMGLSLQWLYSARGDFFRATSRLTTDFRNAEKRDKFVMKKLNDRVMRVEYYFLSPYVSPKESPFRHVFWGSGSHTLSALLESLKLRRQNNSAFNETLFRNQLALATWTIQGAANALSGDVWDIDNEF

B1: 24A1 (antibody, human IgG1, V domains shown)
VH: EVQLVESGGGLVQPGGSLRLTCAASGFTFSSYAMSWVRQAPGKGLERVSEISGSGSSTNYADSVKGRFTISRDNSKNTLYLQMNSLRAEDTAVYYCAKDDSSGWAFNIWDQGTVVTVSS
notes: Heavy-chain antibody without light chain; also called anti-TFR1 antibody 24A1
B2: 24G5 (antibody, human IgG1, V domains shown)
VH: B1 VH with E1Q, V2L, V5Q, Y32F, G53D, S56G, S57N, N59Y
notes: Heavy-chain antibody without light chain; also called anti-TFR1 antibody 24G5
B3: JR141-N (antibody, V domains shown)
VH: EVQLVQSGAEVKKPGESLKISCKGSGYSFTNYWLGWVRQMPGKGLEWMGDIYPGGDYPTYSEKFKVQVTISADKSISTAYLQWSSLKASDTAMYYCARSGNYDEVAYWGQGTLVTVSS
VL: DIVMTQTPLSLSVTPGQPASISCRSSQSLVHSNGNTYLHWYLQKPGQSPQLLIYKVSNRFSGVPDRFSGSGSGTDFTLKISRVEAEDVGVYYCSQSTHVPWTFGQGTKVEIK
notes: also called positive control; JR141 VH and VL on human IgG1 N297A
B4: 23B8 (antibody, V domains shown)
VH: QVTLKESGGGLVKPGGSLRLSCAASGFPFSNAWMNWVRQAPGKGLEWVGHIKSKTDGGTTDYAAPVKGRFTISRDDSKNMVFLQMNSLKTEDTAVYYCTTDRAYCGGDCSHYYYHDLDVWGQGTTVTVSS
notes: Heavy-chain antibody without light chain; also called anti-TFR1 antibody 23B8
B5: 24C9 (antibody, human IgG1, V domains shown)
VH: EVQLVQSGGGVVQPGRSLRLSCAASGFTLSSYGMYWVRQAPGKGREWVAFIRFDESKKYYADSVKGRFTISRDNSKNTLYLQMNSLRAEDTAVYYCARDGEGGYCTNGVCHGLDVWGQGTTVTVSS
notes: Heavy-chain antibody without light chain; also called anti-TFR1 antibody 24C9

The binders below were run against T3, human TFR1 expressed on CHO-S cells (human, UniProt P02786 1-760) (assay: flow cytometry on CHO-S-hTFR1 cells; anti-hIgG-Fc Alexa Fluor 647 secondary).
T3 construct: CHO-S cells transfected with a vector expressing human TFR1; also called hTFR1; CHO-S-hTFR1 cells
Description: (§1) CHO-S-hTFR1 cells or CHO-S-fasTFR1 cells were transferred to a 96-well plate at a density of 10⁵ cells/well respectively. Serially diluted sample anti-TFR1 antibodies were added to the 96-well plate, and incubated at 4° C. for 30 minutes. PBS was used as a negative control (NC).

T3 sequence (P02786 whole entry): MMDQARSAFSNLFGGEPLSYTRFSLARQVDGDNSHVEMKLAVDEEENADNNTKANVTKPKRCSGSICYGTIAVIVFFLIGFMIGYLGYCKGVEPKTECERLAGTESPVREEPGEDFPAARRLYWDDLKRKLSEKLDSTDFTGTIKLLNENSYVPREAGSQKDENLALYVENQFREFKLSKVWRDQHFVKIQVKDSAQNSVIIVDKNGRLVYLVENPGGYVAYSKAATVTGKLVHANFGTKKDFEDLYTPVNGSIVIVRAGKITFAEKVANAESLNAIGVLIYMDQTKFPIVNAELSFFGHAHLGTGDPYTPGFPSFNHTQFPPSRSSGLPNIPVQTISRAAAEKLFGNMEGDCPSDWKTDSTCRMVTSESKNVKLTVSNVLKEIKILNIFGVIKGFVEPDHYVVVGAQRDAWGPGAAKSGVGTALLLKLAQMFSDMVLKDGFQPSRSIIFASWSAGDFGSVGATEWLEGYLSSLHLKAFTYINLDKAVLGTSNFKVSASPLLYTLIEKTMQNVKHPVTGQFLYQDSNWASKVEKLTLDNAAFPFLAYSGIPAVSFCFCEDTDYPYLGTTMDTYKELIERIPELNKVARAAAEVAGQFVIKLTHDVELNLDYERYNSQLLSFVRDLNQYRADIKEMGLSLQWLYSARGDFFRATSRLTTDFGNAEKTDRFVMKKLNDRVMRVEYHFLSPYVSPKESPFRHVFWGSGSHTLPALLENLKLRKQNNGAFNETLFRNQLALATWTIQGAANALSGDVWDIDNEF

Percentage of Positive Cells [%] | Binder
56.4 | B1
54.3 | B2
45 | B3
38.8 | B4
45.8 | B5

Target: T1, Macaca fascicularis (crab-eating …)
Experiment: flow cytometry on CHO-S-fasTFR1 cells; anti-hIgG-Fc Alexa Fluor 647 secondary
Description: as §1

Percentage of Positive Cells [%] | Binder
50.9 | B1
51.2 | B2
37.2 | B3
39.6 | B4

What follows are binders tested against T4, His-tagged human TFR1 (transferrin receptor 1) protein (human, UniProt P02786 89-760) (assay: SPR, Biacore 8K; antibody captured on Protein A chip, hTFR1-His as analyte; 1:1 Langmuir fit).
T4 construct: Bought protein; The order of the tag and the receptor part is not known; also called hTFR1-His; ACROBiosystems Cat #: CD1-H5243; not shown: His tag
Description: (§2) Purified anti-TFR1 antibodies was captured on the Protein A chip (Series S Sensor Chip Protein A) for the detection. Purified anti-TFR1 antibodies (1 μg/mL) was loaded at 10 μL/min to bind to hTFR1-His and fasTFR1-His (200 nM). The flow rate was 30 μL/min. The binding and dissociation time were set to 180 seconds and 600 seconds, respectively. The chip was regenerated after the last injection of each titration with a glycine solution (pH 2.0) at […] for 30 seconds.
(§3) As a person of ordinary skill in the art would understand, the same method with appropriate adjustments for parameters (e.g., antibody concentration) was performed for each tested antibody.

T4 sequence (P02786 89-760 limits assumed): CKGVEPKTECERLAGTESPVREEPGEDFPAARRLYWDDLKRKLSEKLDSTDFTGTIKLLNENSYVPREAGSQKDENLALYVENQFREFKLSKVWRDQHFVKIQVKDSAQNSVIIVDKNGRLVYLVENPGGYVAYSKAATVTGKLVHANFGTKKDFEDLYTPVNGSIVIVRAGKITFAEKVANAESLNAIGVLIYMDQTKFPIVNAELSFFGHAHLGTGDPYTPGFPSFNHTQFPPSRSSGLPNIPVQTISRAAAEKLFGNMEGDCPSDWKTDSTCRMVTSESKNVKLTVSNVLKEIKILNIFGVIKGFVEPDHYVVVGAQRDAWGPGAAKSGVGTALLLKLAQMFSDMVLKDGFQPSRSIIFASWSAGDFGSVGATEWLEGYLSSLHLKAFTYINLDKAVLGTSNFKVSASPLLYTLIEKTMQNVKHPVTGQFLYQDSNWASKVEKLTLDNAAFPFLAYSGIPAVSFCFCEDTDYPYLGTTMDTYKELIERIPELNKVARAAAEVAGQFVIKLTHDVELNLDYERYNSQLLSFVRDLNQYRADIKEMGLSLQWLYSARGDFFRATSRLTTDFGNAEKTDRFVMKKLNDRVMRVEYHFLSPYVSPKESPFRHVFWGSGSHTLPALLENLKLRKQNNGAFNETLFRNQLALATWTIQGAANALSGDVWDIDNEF

Kd [nM] | koff [s⁻¹] | kon [M⁻¹ s⁻¹] | Binder
2.93 | 7.68e-05 | 26200 | B1
2.05 | 8.68e-05 | 42400 | B2
8.73 | 0.000132 | 15100 | B4
14.3 | 0.000383 | 26800 | B5

Target: T2, His-tagged monkey TFR1 protein
Experiment: SPR, Biacore 8K; antibody captured on Protein A chip, fasTFR1-His as analyte; 1:1 Langmuir fit
Description: as §2, §3

Kd [nM] | koff [s⁻¹] | kon [M⁻¹ s⁻¹] | Binder
2.32 | 0.000101 | 43600 | B1
1.39 | 8.79e-05 | 63300 | B2
19.5 | 0.00799 | 410000 | B4

Each binder was assayed against T4, His-tagged human TFR1 (transferrin …) (assay: BLI (Octet) binning; hTFR1-His captured on HIS1K; ratio = binding of analyte 2 / binding of analyte 1; competitor (analyte 1, bound first): 23B8).
Description: (§4) Relative positions of target protein epitope between a pair of purified anti-TFR1 antibodies were analyzed by Biolayer Interferometry (BLI) using ForteBio Octet system at 30° C. 1×HBS-EP+ buffer (10 mM 4-(2-hydroxyethyl)-1-piperazineethanesulfonic acid (HEPES), 150 mM NaCl, 3 mM ethylenediaminetetraacetic acid (EDTA) and 0.05% P20, pH7.4) diluted from HBS-EP+ buffer (10×) was used as the running buffer throughout the experiment. About 10 μg/mL of hTFR1-His protein was captured by HIS1K (Anti-Penta-HIS) for 200 seconds, and 200 nM of antibody (analyte 1) was injected at a flow rate of 30 μL/min to bind the ligand. Another antibody (analyte 2) was injected under the same conditions to determine whether the binding of different antibodies interfered with each other. The binding time was 300 seconds for each antibody.
(§5) The binding value of each antibody was obtained using Data Analysis HT 12.0. To quantify the interference of one antibody binding to another, a binding ratio was calculated to compare each pair of antibodies. The binding ratio is defined as the binding value of the second antibody (analyte 2), divided by the binding value of the first antibody (analyte 1).

binding ratio | Binder
0 | B1
0 | B2
0.7 | B3
0.1 | B4
0.6 | B5

These binders were tested against T4, His-tagged human TFR1 (transferrin …) (assay: BLI (Octet) binning; hTFR1-His captured on HIS1K; ratio = binding of analyte 2 / binding of analyte 1; competitor (analyte 1, bound first): 24A1).
Description: as §4, §5

binding ratio | Binder
0.1 | B1
0 | B2
0 | B3
0.2 | B4
0.1 | B5

Each binder was assayed against T4, His-tagged human TFR1 (transferrin …) (assay: BLI (Octet) binning; hTFR1-His captured on HIS1K; ratio = binding of analyte 2 / binding of analyte 1; competitor (analyte 1, bound first): 24C9).
Description: as §4, §5

binding ratio | Binder
0.1 | B1
0 | B2
1.1 | B3
1.4 | B4
0 | B5

What follows are binders tested against T4, His-tagged human TFR1 (transferrin …) (assay: BLI (Octet) binning; hTFR1-His captured on HIS1K; ratio = binding of analyte 2 / binding of analyte 1; competitor (analyte 1, bound first): 24G5).
Description: as §4, §5

binding ratio | Binder
0.1 | B1
0 | B2
0 | B3
0.3 | B4
0.2 | B5

The binders below were run against T4, His-tagged human TFR1 (transferrin …) (assay: BLI (Octet) binning; hTFR1-His captured on HIS1K; ratio = binding of analyte 2 / binding of analyte 1; competitor (analyte 1, bound first): JR141-N).
Description: as §4, §5

binding ratio | Binder
0.3 | B1
0.2 | B2
0 | B3
1.1 | B4
0.8 | B5

Reference: patent publication US20260078197A1 (BIOCYTOGEN PHARMACEUTICALS BEIJING, published 2026)
